# Measurements: US7943358B2, “Polymerase enhancing factor (PEF) extracts, PEF protein complexes, isolated PEF protein, and methods for purifying and identifying” (Agilent Technologies, Inc., priority 1997, dated 2011)
# T1: cloned Pfu DNA polymerase (Pyrococcus furiosus, UniProt P61875)
# T1 sequence (P61875 1-775): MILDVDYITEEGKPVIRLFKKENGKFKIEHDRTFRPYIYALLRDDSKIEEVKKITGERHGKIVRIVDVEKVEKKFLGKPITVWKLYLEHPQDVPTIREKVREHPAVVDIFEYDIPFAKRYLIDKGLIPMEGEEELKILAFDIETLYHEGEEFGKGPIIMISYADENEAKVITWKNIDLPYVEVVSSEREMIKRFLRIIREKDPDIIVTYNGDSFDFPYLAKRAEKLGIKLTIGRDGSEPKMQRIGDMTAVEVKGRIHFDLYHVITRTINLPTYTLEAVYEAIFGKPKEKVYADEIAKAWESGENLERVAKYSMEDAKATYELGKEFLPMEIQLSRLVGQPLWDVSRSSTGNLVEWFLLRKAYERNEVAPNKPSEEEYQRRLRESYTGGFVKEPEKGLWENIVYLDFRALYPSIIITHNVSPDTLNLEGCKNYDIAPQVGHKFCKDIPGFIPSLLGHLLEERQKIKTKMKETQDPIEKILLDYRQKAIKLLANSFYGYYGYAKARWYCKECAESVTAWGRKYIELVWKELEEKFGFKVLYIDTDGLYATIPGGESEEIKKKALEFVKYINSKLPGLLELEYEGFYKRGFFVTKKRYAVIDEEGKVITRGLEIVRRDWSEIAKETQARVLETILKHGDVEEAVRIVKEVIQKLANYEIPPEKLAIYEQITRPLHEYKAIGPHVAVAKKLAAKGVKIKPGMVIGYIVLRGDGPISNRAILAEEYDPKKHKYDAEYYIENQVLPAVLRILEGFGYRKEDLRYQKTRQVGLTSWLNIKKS
# B1: Pfu DNA polymerase: DNA polymerase of Pyrococcus furiosus (protein, UniProt P61875 1-775, looked up)
# DNA polymerase: T1 sequence (P61875 1-775)
# What was measured:
# Assay type in all cases: biochemical
# [1] = molecular target: T1, cloned Pfu DNA polymerase; assay: 6.2 kb primer-template PCR enhancing assay; settings: protein concentrations comparable to or greater than gel-purified PEFs
# Description: One embodiment of an assay used to screen for PEFs, in this case from Pyrococcus furiosus, involved amplifying a 6.2 kb target from transgenic mouse DNA (6.2 kb primer-template assay). A master PCR cocktail was prepared consisting of: 200 μM each dNTP, 2 μg/ml primer F432-21 (5′-CTA-TTG-AGT-ACG-AAC-GCC-ATC) (SEQ ID NO.: 62), 2 μg/ml primer R6656-20 (GTC-ACG-CTT-GCT-CCA-CTC-CG) (SEQ ID NO: 63), 2.5 μg/ml λAA742 DNA (transgenic mouse DNA having 40 copies of a lambda phage DNA shuttle vector), 1× cloned Pfu DNA polymerase PCR buffer (10 mM KCl, 10 mM (NH4)2SO4, 20 mM Tris-HCl (pH 8.8), 2 mM MgSO4, 0.1% (v/v) Triton X-100, and 100 μg/ml BSA), and 25 U/ml cloned Pfu DNA polymerase. Samples were diluted in 1× cloned Pfu DNA polymerase PCR buffer, and 1 μl of each diluted sample was added to 24 μl of the PCR cocktail. PCR amplifications were conducted on the RoboCycler 96 Temperature Cycler (Stratagene), using the following conditions: 96° C. for 45 s (1 cycle)/96° C. for 45 s; 60° C. for 45 s; 72° C. for 14 min. (35 cycles)/72° C. for 10 min. (1 cycle). PCR products (10 μl/lane) are run out on 1% agarose gels and PCR product bands visualized by ethidium bromide staining. […] When PCR enhancement is due to the presence of PEFs, rather than contaminating endogenous DNA polymerase activity, amplifications performed in the absence of […] yield no PCR product. Moreover, PCR amplifications performed in the absence of exogenous DNA template should yield no PCR product when the PEF sample lacks contaminating target DNA.
# [2] = system: gapped-duplex calf thymus DNA; assay: DNA polymerase activity, gapped-duplex calf thymus DNA assay; settings: 30 minutes at 72° C.
# Description: Initially and as a control to confirm the activity of the DNA polymerase used, gapped-duplex calf thymus DNA (Pharmacia) assays were performed. The polymerase cocktail contained 50 mM Tris-HCl, pH 8.0, 5 mM MgCl2, 1 mM DTT, 50 μg/m BSA, 4% glycerol, 200 μM each dNTP, [^3H]TTP (0.5 mCi·μmole final concentration), and 250 μg/ml of activated calf thymus DNA (Pharmacia). Samples containing Pfu DNA polymerase or P. furiosus PEF were serially diluted in Pfu DNA polymerase storage buffer (50 mM Tris-HCl, pH 8.2, 0.1% NP-40, 0.1% Tween-20, 0.1 mM EDTA, 1 mM DTT, 50% glycerol) and then 1 μl of each dilution was added to 10 μl aliquots of polymerase cocktail. Polymerization reactions were conducted in triplicate for 30 minutes at 72° C. The extension reactions were quenched on ice, and then 5 μl aliquots were spotted immediately onto DE81 filters (Whatman). Unincorporated [^3H]TTP was removed by 6 washes with 2×SCC (0.3M NaCl, 30 mM sodium citrate, pH 7.0), followed by one wash with 100% ethanol. Incorporated radioactivity was measured by scintillation counting. The assay was calibrated by counting a known amount of [^3H]TTP on DE-81 filters, omitting the wash steps. One unit of polymerase activity is defined as the amount of enzyme which catalyzes the incorporation of 10 nmoles of total dNTP into polymeric form (binds to DE-81 paper) in 30 minutes at 72° C. […]
# [3] = PCR cycling of dCTP in the presence of PEF or Pfu DNA polymerase, HPLC; settings: 10 mM dCTP, 1.25 U Pfu/μl
molecule,measurement,setting,value
B1,PCR enhancing activity (in words),[1],lacks PCR enhancing activity
same,specific activity (DNA polymerase),[2],2-4×10^4 u/mg
same,"change in dCDP, dCMP or dUTP produced when dCTP cycled with Pfu DNA polymerase",[3],no difference
